Reference: patent US20160115237A1 (UNIVERSITY OF BRITISH COLUMBIA, published 2016)

B1: antibody c-120 (misfolded PrP rigid loop antibody) (antibody)
heavy: QSVEESGGHLVTPGTPLTLTCTVSGIDLSTYAMGWVRQAPGKGLEWIGVITKSGNTYYASWAKGRFAISKTSTTVDLKITSPTTEDTATYFCGRYGIGVSYYDIWGPGTLVTVSSGQPKAPSVFPLAPCCGDTPSSTVTLGCLVKGYLPEPVTVTWNSGTLTNGVRTFPSVRQSSGLYSLSSVVSVTSSSQPVTCNVAHPATNTKVDKTVAPSTCSKPTCPPPELLGGPSVFIFPPKPKDTLMISRTPEVTCVVVDVSQDDPEVQFTWYINNEQVRTARPPLREQQFNSTIRVVSTLPIAHQDWLRGKEFKCKVHNKALPAPIEKTISKARGQPLEPKVYTMGPPREELSSRSVSLTCMINGFYPSDISVEWEKNGKAEDNYKTTPAVLDSDGSYFLYSKLSVPTSEWQRGDVFTCSVMHEALHNHYTQKSISRSPGK
light: AQVLTQTPSPVSAAVGGTVTINCQSSQSLYNKNWLSWYQKKPGQPPKLLIYKASTLESGVSSRFKGSGSGTQFTLTISGVQCDDAATYYCQGEFSCSSADCTAFGGGTEVVVKGDPVAPTVLIFPPAADQVATGTVTIVCVANKYFPDVTVTWEVDGTTQTTGIENSKTPQNSADCTYNLSSTLTLTSTQYNSHKEYTCKVTQGTTSVVQSFNRGDC
B2: antibody AMF-3a-118 (misfolded FasR antibody) (antibody, V domains shown)
VH: QSVEESGGRLVTPGTPLTLTCKASGFSLSDSRVSWVRQAPGKGLEWIGIVGIGWNIYHANWAKGRFTISKTSSTTVDLKITSPTVEDTATYFCARGLGGGTVIWGPGTLVTVSL
VL: AQVLTQTPASVSAAVGGTVTISCQSSESVYKNNYLSWFQQKPGQPPKLLIYEASKLASGVSTRFKGSGSGTQFTLTISGVQCDDAATYYCLGEFSCYSGDCGTFGGGTAVVVKG

Assays:
[1] = biological target: PrP rigid loop peptide … (DSE3) (human)
[2] = biological target: T1, human Fas receptor (FasR) on the surface of HUVEC cells (human, UniProt P25445 26-335); experiment: flow cytometry on mitomycin C-treated senescent HUVEC cells, antibody at 40 µg/ml
T1 construct: whole, on cells; also called hTNFRSM6; hTNFR6
T1 sequence (looked up): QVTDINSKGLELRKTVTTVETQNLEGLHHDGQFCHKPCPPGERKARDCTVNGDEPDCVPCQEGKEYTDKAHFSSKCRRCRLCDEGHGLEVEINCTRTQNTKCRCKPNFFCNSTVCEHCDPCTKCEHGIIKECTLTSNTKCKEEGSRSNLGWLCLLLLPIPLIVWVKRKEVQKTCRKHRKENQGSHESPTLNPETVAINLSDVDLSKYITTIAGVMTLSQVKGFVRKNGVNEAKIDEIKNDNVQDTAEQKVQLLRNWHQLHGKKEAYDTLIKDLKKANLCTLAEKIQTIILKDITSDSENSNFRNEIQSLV

| Binder | Kd [1] | binding result [2] |
| --- | --- | --- |
| B1 | 0.1 nM | – |
| B2 | – | binds |
